Results: US20070059304A1 (Pfizer, published 2007)

Key:
[1] = molecular target: human TrkC expressed on HEK-293 cells (human) (UniProt Q16288); assay: cell-based or functional assay
[2] = molecular target: human TrkA expressed on HEK-293 cells (human) (UniProt P04629); assay: cell-based or functional assay
[3] = molecular target: human TrkB (full length), expressed on the surface of HEK-293 cells (human, UniProt Q16620 32-822); assay: cell-based or functional assay
[4] = molecular target: T1, rhTrkB-EDC-Fc: recombinant protein that includes the extracellular domain of human TrkB fused to the Fc … (human, UniProt Q16620 32-430); assay: ELISA on coated rhTrkB-EDC-Fc (ED50)
T1 construct: bought (R&D system, Cat. No. 688-TK); also called human TrkB (ELISA); not shown: Fc region of human IgG1

[5] = molecular target: T1, rhTrkB-EDC-Fc: recombinant protein that …; assay: competition ELISA: rhTrkB-EDC-Fc binding to coated BDNF

Chain of human TrkB (full length), expressed on the surface of HEK-293 cells (Q16620 other isoform, or with tags, fused parts or gaps limits assumed): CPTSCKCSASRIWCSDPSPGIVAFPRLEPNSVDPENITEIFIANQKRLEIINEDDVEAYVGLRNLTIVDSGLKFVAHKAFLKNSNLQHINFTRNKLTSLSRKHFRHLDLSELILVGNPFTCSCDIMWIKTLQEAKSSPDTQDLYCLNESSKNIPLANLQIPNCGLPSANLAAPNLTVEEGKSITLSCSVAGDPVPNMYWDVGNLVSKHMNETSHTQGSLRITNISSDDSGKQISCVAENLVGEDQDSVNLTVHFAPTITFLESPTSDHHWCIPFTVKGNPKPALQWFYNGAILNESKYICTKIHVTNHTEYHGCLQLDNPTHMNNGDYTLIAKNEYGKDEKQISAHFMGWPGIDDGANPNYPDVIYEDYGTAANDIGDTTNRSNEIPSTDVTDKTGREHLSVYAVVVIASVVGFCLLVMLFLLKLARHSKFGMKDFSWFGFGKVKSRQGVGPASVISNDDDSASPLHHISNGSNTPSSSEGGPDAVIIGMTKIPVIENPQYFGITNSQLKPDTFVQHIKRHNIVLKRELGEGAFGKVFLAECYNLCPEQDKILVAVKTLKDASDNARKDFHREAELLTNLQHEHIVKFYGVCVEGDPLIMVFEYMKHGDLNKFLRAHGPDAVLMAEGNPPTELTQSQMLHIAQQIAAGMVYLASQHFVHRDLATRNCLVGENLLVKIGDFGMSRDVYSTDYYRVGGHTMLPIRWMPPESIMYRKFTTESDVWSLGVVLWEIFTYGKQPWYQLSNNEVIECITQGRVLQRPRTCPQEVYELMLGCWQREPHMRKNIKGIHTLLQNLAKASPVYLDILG
T1 sequence (Q16620 32-430): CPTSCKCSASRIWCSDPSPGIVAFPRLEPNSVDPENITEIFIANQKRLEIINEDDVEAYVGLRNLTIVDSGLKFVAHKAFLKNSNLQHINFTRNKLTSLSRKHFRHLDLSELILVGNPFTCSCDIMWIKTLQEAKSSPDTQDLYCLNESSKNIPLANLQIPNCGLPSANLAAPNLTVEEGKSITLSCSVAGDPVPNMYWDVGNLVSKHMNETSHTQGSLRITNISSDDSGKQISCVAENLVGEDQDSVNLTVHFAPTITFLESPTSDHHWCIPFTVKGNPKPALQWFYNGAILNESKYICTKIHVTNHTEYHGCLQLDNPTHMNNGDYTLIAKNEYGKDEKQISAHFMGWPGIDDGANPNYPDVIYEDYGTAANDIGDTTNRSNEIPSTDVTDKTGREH
Chain of human TrkA expressed on HEK-293 cells (human) (P04629 33-796 limits assumed): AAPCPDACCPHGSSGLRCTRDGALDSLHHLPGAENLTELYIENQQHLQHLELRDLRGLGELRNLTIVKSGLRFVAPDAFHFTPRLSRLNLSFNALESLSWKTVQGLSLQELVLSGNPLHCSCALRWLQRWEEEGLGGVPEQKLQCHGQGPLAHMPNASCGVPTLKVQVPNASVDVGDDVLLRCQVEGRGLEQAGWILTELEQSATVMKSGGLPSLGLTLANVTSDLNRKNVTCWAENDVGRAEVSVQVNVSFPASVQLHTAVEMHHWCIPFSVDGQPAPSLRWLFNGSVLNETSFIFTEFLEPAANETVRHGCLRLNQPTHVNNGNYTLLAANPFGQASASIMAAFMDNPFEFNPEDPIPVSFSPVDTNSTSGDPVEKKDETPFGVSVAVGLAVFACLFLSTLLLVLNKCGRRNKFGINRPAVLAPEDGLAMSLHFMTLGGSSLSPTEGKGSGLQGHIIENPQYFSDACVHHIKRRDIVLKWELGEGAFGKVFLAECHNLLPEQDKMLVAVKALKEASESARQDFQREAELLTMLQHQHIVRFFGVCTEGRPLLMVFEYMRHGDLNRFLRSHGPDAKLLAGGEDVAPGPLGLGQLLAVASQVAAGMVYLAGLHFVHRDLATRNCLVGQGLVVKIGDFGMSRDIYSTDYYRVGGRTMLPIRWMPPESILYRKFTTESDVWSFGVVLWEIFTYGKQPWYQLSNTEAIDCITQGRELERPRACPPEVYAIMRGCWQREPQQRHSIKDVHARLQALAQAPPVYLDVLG
Chain of human TrkC expressed on HEK-293 cells (human) (Q16288 32-839 S70N limits assumed): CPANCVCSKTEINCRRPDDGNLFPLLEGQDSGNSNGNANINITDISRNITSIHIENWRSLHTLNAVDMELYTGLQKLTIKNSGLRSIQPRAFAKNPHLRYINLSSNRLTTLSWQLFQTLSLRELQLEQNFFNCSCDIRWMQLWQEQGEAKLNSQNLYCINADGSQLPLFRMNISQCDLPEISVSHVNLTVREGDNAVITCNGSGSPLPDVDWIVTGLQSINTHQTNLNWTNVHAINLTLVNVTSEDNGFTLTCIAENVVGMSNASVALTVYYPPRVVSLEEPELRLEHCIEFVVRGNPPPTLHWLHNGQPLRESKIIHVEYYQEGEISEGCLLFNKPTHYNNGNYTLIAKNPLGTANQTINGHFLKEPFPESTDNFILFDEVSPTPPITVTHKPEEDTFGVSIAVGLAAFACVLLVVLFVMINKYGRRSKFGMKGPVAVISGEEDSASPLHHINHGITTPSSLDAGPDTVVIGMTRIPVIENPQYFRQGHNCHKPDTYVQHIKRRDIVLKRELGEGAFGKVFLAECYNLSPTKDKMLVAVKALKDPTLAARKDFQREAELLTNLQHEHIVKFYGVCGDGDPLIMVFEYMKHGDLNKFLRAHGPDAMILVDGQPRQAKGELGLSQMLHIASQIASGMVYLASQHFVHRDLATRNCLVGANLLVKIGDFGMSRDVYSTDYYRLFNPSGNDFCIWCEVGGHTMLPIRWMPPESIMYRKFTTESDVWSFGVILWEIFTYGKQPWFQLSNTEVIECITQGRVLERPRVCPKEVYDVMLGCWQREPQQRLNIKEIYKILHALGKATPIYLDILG

In the case of NT-3 (ligand), the TrkC luciferase assay: signal at 300 ng/ml NT-3 (fold over basal) [1] is reported as 6.

NGF (ligand) was tested, and the TrkA luciferase assay: signal at 300 ng/ml NGF (fold over basal) [2] was 6.

B1: 4C7 (antibody)
chain 1: QVQLVQSGAEVKKPGASVKVSCKASGYTFTNYVILWVRQAPGQGLEWMGYINPYNDGTKYNEKFKGRVTMTRDTSTSTVYMELSSLRSEDTAVYYCARLLKYRRFSYYAIDYWGQGTTVTVSS
chain 2: DIQMTQSPSSLSASVGDRVTITCRASENVYSNLAWYQQKPGKAPKLLIYAASNLQSGVPSRFSGSGSGTDFTFTISSLQPEDIATYYCQHFWGSPFTFGQGTKLEIK
In the case of B1, the “luciferase assay, HEK-293 cells expressing rhTrkB: EC50” value [3] is reported as ~100 pM, the EC50 [4] is reported as 17 pM and the IC50 [5] is reported as 300 pM.

B2: BDNF (ligand, UniProt P23560 129-247, looked up)
chain: HSDPARRGELSVCDSISEWVTAADKKTAVDMSGGTVTVLEKVPVSKGQLKQYFYETKCNPMGYTKEGCRGIDKRHWNSQCRTTQSYVRALTMDSKKRIGWRFIRIDTSCVCTLTIKRGR
In the case of B2, the “luciferase assay, HEK-293 cells expressing rhTrkB: signal at 200 ng/ml BDNF” value [3] is reported as 6.2 fold over basal.
